Test results taken from IntAct's records for PubMed 23954233.

B1: F-box DNA helicase 1 (Homo sapiens), Q8NFZ0 (parent)
chain: MRRFKRKHLTAIDCQHLARSHLAVTQPFGQRWTNRDPNHGLYPKPRTKRGSRGQGSQRCIPEFFLAGKQPCTNDMAKSNSVGQDSCQDSEGDMIFPAESSCALPQEGSAGPGSPGSAPPSRKRSWSSEEESNQATGTSRWDGVSKKAPRHHLSVPCTRPREARQEAEDSTSRLSAESGETDQDAGDVGPDPIPDSYYGLLGTLPCQEALSHICSLPSEVLRHVFAFLPVEDLYWNLSLVCHLWREIISDPLFIPWKKLYHRYLMNEEQAVSKVDGILSNCGIEKESDLCVLNLIRYTATTKCSPSVDPERVLWSLRDHPLLPEAEACVRQHLPDLYAAAGGVNIWALVAAVVLLSSSVNDIQRLLFCLRRPSSTVTMPDVTETLYCIAVLLYAMREKGINISNRIHYNIFYCLYLQENSCTQATKVKEEPSVWPGKKTIQLTHEQQLILNHKMEPLQVVKIMAFAGTGKTSTLVKYAEKWSQSRFLYVTFNKSIAKQAERVFPSNVICKTFHSMAYGHIGRKYQSKKKLNLFKLTPFMVNSVLAEGKGGFIRAKLVCKTLENFFASADEELTIDHVPIWCKNSQGQRVMVEQSEKLNGVLEASRLWDNMRKLGECTEEAHQMTHDGYLKLWQLSKPSLASFDAIFVDEAQDCTPAIMNIVLSQPCGKIFVGDPHQQIYTFRGAVNALFTVPHTHVFYLTQSFRFGVEIAYVGATILDVCKRVRKKTLVGGNHQSGIRGDAKGQVALLSRTNANVFDEAVRVTEGEFPSRIHLIGGIKSFGLDRIIDIWILLQPEEERRKQNLVIKDKFIRRWVHKEGFSGFKRYVTAAEDKELEAKIAVVEKYNIRIPELVQRIEKCHIEDLDFAEYILGTVHKAKGLEFDTVHVLDDFVKVPCARHNLPQLPHFRVESFSEDEWNLLYVAVTRAKKRLIMTKSLENILTLAGEYFLQAELTSNVLKTGVVRCCVGQCNNAIPVDTVLTMKKLPITYSNRKENKGGYLCHSCAEQRIGPLAFLTASPEQVRAMERTVENIVLPRHEALLFLVF

Variants of: B1
Details: with src_human SRC

Row | effect of a mutation on the interaction | Variant
1 | decreasing interaction | G774R

Variants of: B1
Details: with src_human SRC
Remark: another data set of the same source

Row | effect of a mutation on the interaction | Variant
2 | disrupting interaction | I1030F
